Experimental data taken from patent publication US20140087995A1 (published 2014).
Numbered stars: 1 amine (or outer) side, 2 acyl side, 3 side chain; on linkers, the order of the positions; unused ones are H or OH. Bridge positions count the residues as written; N and C are the ends. Side chains are listed from the residue outwards. Ends that are not written are not given here. * marks the point of attachment. C20 diacid = O=C(O)CCCCCCCCCCCCCCCCCCC(=O)*; γGlu = O=C(O)[C@H](CCC(=O)[*:2])N[*:1]; AEEA = NCCOCCOCC(=O)O

T1: human amylin receptor (human, UniProt P30988 25-474; O60896 24-148, limits assumed)
T1 construct: whole, on cells; Used as cell membranes prepared from the Amylin 3(a)/CRE-luc BHK cells (Assay V); also called hAmylin-R; hAmylinR
T1 sequence (looked up) 1: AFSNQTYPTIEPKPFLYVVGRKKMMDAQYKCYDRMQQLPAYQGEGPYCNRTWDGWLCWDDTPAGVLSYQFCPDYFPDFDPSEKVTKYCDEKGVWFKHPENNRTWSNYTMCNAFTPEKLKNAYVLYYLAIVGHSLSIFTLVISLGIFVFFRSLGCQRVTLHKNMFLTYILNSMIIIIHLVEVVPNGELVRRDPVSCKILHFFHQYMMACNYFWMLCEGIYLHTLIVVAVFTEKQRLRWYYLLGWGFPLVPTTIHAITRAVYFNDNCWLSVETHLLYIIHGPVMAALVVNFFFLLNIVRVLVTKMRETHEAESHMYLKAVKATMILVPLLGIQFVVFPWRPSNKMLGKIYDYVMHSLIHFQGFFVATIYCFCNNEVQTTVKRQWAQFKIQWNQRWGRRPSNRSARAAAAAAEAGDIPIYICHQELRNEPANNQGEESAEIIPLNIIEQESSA
T1 sequence (looked up) 2: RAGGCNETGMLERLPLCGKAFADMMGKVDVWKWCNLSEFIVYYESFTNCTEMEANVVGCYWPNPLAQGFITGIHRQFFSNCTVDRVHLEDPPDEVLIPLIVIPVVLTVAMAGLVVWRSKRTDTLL


Target: T1, human amylin receptor
Experiment: SPA competition vs 125I-rat amylin, membranes of amylin 3(a) receptor BHK cells (Assay V)
In short: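 SPA beads with BHK Amylin 3(a)/CRE-luc cell membranes (35 ng/μL final) in 50 mM Hepes pH 7.4, 1 mM CaCl2, 5 mM MgCl₂, 0.1% OA, 0.02% Tween20.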

IC50 [nM] | Binder
0.195 | {C20 diacid-γGlu}-GRCNTATCATQRLANFLRHSSPNFGAIPSSTNVGSNTY-NH2 (disulfide 3-8; SMILES CC[C@H](C)[C@H](NC(=O)[C@H](C)NC(=O)CNC(=O)[C@H](Cc1ccccc1)NC(=O)[C@H](CC(N)=O)NC(=O)[C@@H]1CCCN1C(=O)[C@H](CO)NC(=O)[C@H](CO)NC(=O)[C@H](Cc1c[nH]cn1)NC(=O)[C@H](CCCNC(=N)N)NC(=O)[C@H](CC(C)C)NC(=O)[C@H](Cc1ccccc1)NC(=O)[C@H](CC(N)=O)NC(=O)[C@H](C)NC(=O)[C@H](CC(C)C)NC(=O)[C@H](CCCNC(=N)N)NC(=O)[C@H](CCC(N)=O)NC(=O)[C@@H](NC(=O)[C@H](C)NC(=O)[C@@H]1CSSC[C@H](NC(=O)[C@H](CCCNC(=N)N)NC(=O)CNC(=O)CC[C@H](NC(=O)CCCCCCCCCCCCCCCCCCC(=O)O)C(=O)O)C(=O)N[C@@H](CC(N)=O)C(=O)N[C@@H]([C@@H](C)O)C(=O)N[C@@H](C)C(=O)N[C@@H]([C@@H](C)O)C(=O)N1)[C@@H](C)O)C(=O)N1CCC[C@H]1C(=O)N[C@@H](CO)C(=O)N[C@@H](CO)C(=O)N[C@H](C(=O)N[C@@H](CC(N)=O)C(=O)N[C@H](C(=O)NCC(=O)N[C@@H](CO)C(=O)N[C@@H](CC(N)=O)C(=O)N[C@H](C(=O)N[C@@H](Cc1ccc(O)cc1)C(N)=O)[C@@H](C)O)C(C)C)[C@@H](C)O, also called compound 46) [N^-1-[(4S)-4-carboxy-4-(19-carboxynonadecanoylamino)butanoyl]-Gly[Arg1,Arg17,Pro21,Pro27]-h-amylin]
0.217 | {C20 diacid-γGlu}-GRCNTATCATQRLAHFLRHSSPNFGAIPSSTNVGPNTY-NH2 (disulfide 3-8; SMILES CC[C@H](C)[C@H](NC(=O)[C@H](C)NC(=O)CNC(=O)[C@H](Cc1ccccc1)NC(=O)[C@H](CC(N)=O)NC(=O)[C@@H]1CCCN1C(=O)[C@H](CO)NC(=O)[C@H](CO)NC(=O)[C@H](Cc1c[nH]cn1)NC(=O)[C@H](CCCNC(=N)N)NC(=O)[C@H](CC(C)C)NC(=O)[C@H](Cc1ccccc1)NC(=O)[C@H](Cc1c[nH]cn1)NC(=O)[C@H](C)NC(=O)[C@H](CC(C)C)NC(=O)[C@H](CCCNC(=N)N)NC(=O)[C@H](CCC(N)=O)NC(=O)[C@@H](NC(=O)[C@H](C)NC(=O)[C@@H]1CSSC[C@H](NC(=O)[C@H](CCCNC(=N)N)NC(=O)CNC(=O)CC[C@H](NC(=O)CCCCCCCCCCCCCCCCCCC(=O)O)C(=O)O)C(=O)N[C@@H](CC(N)=O)C(=O)N[C@@H]([C@@H](C)O)C(=O)N[C@@H](C)C(=O)N[C@@H]([C@@H](C)O)C(=O)N1)[C@@H](C)O)C(=O)N1CCC[C@H]1C(=O)N[C@@H](CO)C(=O)N[C@@H](CO)C(=O)N[C@H](C(=O)N[C@@H](CC(N)=O)C(=O)N[C@H](C(=O)NCC(=O)N1CCC[C@H]1C(=O)N[C@@H](CC(N)=O)C(=O)N[C@H](C(=O)N[C@@H](Cc1ccc(O)cc1)C(N)=O)[C@@H](C)O)C(C)C)[C@@H](C)O)
0.552 | K([AEEA-γGlu-C20 diacid])RCNTATCATQRLANFLRHSSPNFGAIPSSTNVGSHTY-NH2 (disulfide 3-8; N-terminus assumed; SMILES CC[C@H](C)[C@H](NC(=O)[C@H](C)NC(=O)CNC(=O)[C@H](Cc1ccccc1)NC(=O)[C@H](CC(N)=O)NC(=O)[C@@H]1CCCN1C(=O)[C@H](CO)NC(=O)[C@H](CO)NC(=O)[C@H](Cc1c[nH]cn1)NC(=O)[C@H](CCCNC(=N)N)NC(=O)[C@H](CC(C)C)NC(=O)[C@H](Cc1ccccc1)NC(=O)[C@H](CC(N)=O)NC(=O)[C@H](C)NC(=O)[C@H](CC(C)C)NC(=O)[C@H](CCCNC(=N)N)NC(=O)[C@H](CCC(N)=O)NC(=O)[C@@H](NC(=O)[C@H](C)NC(=O)[C@@H]1CSSC[C@H](NC(=O)[C@H](CCCNC(=N)N)NC(=O)[C@@H](N)CCCCNC(=O)COCCOCCNC(=O)CC[C@H](NC(=O)CCCCCCCCCCCCCCCCCCC(=O)O)C(=O)O)C(=O)N[C@@H](CC(N)=O)C(=O)N[C@@H]([C@@H](C)O)C(=O)N[C@@H](C)C(=O)N[C@@H]([C@@H](C)O)C(=O)N1)[C@@H](C)O)C(=O)N1CCC[C@H]1C(=O)N[C@@H](CO)C(=O)N[C@@H](CO)C(=O)N[C@H](C(=O)N[C@@H](CC(N)=O)C(=O)N[C@H](C(=O)NCC(=O)N[C@@H](CO)C(=O)N[C@@H](Cc1c[nH]cn1)C(=O)N[C@H](C(=O)N[C@@H](Cc1ccc(O)cc1)C(N)=O)[C@@H](C)O)C(C)C)[C@@H](C)O, also called compound 45)
0.275 | K([γGlu-C20 diacid])RCNTATCATQRLANFLRHSSPNFGAIPSSTNVGSHTY-NH2 (disulfide 3-8; N-terminus assumed; SMILES CC[C@H](C)[C@H](NC(=O)[C@H](C)NC(=O)CNC(=O)[C@H](Cc1ccccc1)NC(=O)[C@H](CC(N)=O)NC(=O)[C@@H]1CCCN1C(=O)[C@H](CO)NC(=O)[C@H](CO)NC(=O)[C@H](Cc1c[nH]cn1)NC(=O)[C@H](CCCNC(=N)N)NC(=O)[C@H](CC(C)C)NC(=O)[C@H](Cc1ccccc1)NC(=O)[C@H](CC(N)=O)NC(=O)[C@H](C)NC(=O)[C@H](CC(C)C)NC(=O)[C@H](CCCNC(=N)N)NC(=O)[C@H](CCC(N)=O)NC(=O)[C@@H](NC(=O)[C@H](C)NC(=O)[C@@H]1CSSC[C@H](NC(=O)[C@H](CCCNC(=N)N)NC(=O)[C@@H](N)CCCCNC(=O)CC[C@H](NC(=O)CCCCCCCCCCCCCCCCCCC(=O)O)C(=O)O)C(=O)N[C@@H](CC(N)=O)C(=O)N[C@@H]([C@@H](C)O)C(=O)N[C@@H](C)C(=O)N[C@@H]([C@@H](C)O)C(=O)N1)[C@@H](C)O)C(=O)N1CCC[C@H]1C(=O)N[C@@H](CO)C(=O)N[C@@H](CO)C(=O)N[C@H](C(=O)N[C@@H](CC(N)=O)C(=O)N[C@H](C(=O)NCC(=O)N[C@@H](CO)C(=O)N[C@@H](Cc1c[nH]cn1)C(=O)N[C@H](C(=O)N[C@@H](Cc1ccc(O)cc1)C(N)=O)[C@@H](C)O)C(C)C)[C@@H](C)O, also called compound 44)
0.426 | {C20 diacid-γGlu}-GRCNTATCATQRLAAFLRHSSPNFGAIPSSTNVGHNTY-NH2 (disulfide 3-8; SMILES CC[C@H](C)[C@H](NC(=O)[C@H](C)NC(=O)CNC(=O)[C@H](Cc1ccccc1)NC(=O)[C@H](CC(N)=O)NC(=O)[C@@H]1CCCN1C(=O)[C@H](CO)NC(=O)[C@H](CO)NC(=O)[C@H](Cc1c[nH]cn1)NC(=O)[C@H](CCCNC(=N)N)NC(=O)[C@H](CC(C)C)NC(=O)[C@H](Cc1ccccc1)NC(=O)[C@H](C)NC(=O)[C@H](C)NC(=O)[C@H](CC(C)C)NC(=O)[C@H](CCCNC(=N)N)NC(=O)[C@H](CCC(N)=O)NC(=O)[C@@H](NC(=O)[C@H](C)NC(=O)[C@@H]1CSSC[C@H](NC(=O)[C@H](CCCNC(=N)N)NC(=O)CNC(=O)CC[C@H](NC(=O)CCCCCCCCCCCCCCCCCCC(=O)O)C(=O)O)C(=O)N[C@@H](CC(N)=O)C(=O)N[C@@H]([C@@H](C)O)C(=O)N[C@@H](C)C(=O)N[C@@H]([C@@H](C)O)C(=O)N1)[C@@H](C)O)C(=O)N1CCC[C@H]1C(=O)N[C@@H](CO)C(=O)N[C@@H](CO)C(=O)N[C@H](C(=O)N[C@@H](CC(N)=O)C(=O)N[C@H](C(=O)NCC(=O)N[C@@H](Cc1c[nH]cn1)C(=O)N[C@@H](CC(N)=O)C(=O)N[C@H](C(=O)N[C@@H](Cc1ccc(O)cc1)C(N)=O)[C@@H](C)O)C(C)C)[C@@H](C)O)
0.114 | {C20 diacid-γGlu}-GRCNTATCATQRLAAFLRHSSPNFGAIPSSTNVGPNTY-NH2 (disulfide 3-8)
0.076 | K([AEEA-C20 diacid])CNTATCATQRLANFLRHSSPNFGAIPSSTNVGSNTY-NH2 (disulfide 2-7; N-terminus assumed; SMILES CC[C@H](C)[C@H](NC(=O)[C@H](C)NC(=O)CNC(=O)[C@H](Cc1ccccc1)NC(=O)[C@H](CC(N)=O)NC(=O)[C@@H]1CCCN1C(=O)[C@H](CO)NC(=O)[C@H](CO)NC(=O)[C@H](Cc1c[nH]cn1)NC(=O)[C@H](CCCNC(=N)N)NC(=O)[C@H](CC(C)C)NC(=O)[C@H](Cc1ccccc1)NC(=O)[C@H](CC(N)=O)NC(=O)[C@H](C)NC(=O)[C@H](CC(C)C)NC(=O)[C@H](CCCNC(=N)N)NC(=O)[C@H](CCC(N)=O)NC(=O)[C@@H](NC(=O)[C@H](C)NC(=O)[C@@H]1CSSC[C@H](NC(=O)[C@@H](N)CCCCNC(=O)COCCOCCNC(=O)CCCCCCCCCCCCCCCCCCC(=O)O)C(=O)N[C@@H](CC(N)=O)C(=O)N[C@@H]([C@@H](C)O)C(=O)N[C@@H](C)C(=O)N[C@@H]([C@@H](C)O)C(=O)N1)[C@@H](C)O)C(=O)N1CCC[C@H]1C(=O)N[C@@H](CO)C(=O)N[C@@H](CO)C(=O)N[C@H](C(=O)N[C@@H](CC(N)=O)C(=O)N[C@H](C(=O)NCC(=O)N[C@@H](CO)C(=O)N[C@@H](CC(N)=O)C(=O)N[C@H](C(=O)N[C@@H](Cc1ccc(O)cc1)C(N)=O)[C@@H](C)O)C(C)C)[C@@H](C)O, also called compound 43) [N^ε1-[2-[2-[2-(19-carboxynonadecanoylamino)ethoxy]ethoxy]acetyl]-[Arg17,Pro21,Pro27]-h-amylin]
